What was measured:
[1] = target: TCRs of the MBP-69-89 specific short-term T cell line (Lewis rat) (rat); assay: cell-based or functional assay
[2] = target: TCR of the rat Vβ8.2+ T cell hybridoma C14/BW12-12A1 (A1), specific for Gp-BP-72-89 (rat); assay: flow cytometry, direct binding study on A1 hybridoma
[3] = target: TCR of the rat Vβ8.2+ T cell hybridoma C14/BW12-12A1 (A1), specific for Gp-BP-72-89 (rat); assay: flow cytometry, A1 hybridoma with 10 µM complex 17 h at 4 C, detected with OX6-PE
[4] = target: TCR of the cardiac myosin CM-2-specific cell line (rat); assay: flow cytometry, CM-2 line (blocked with unconjugated OX6) with 10 µM complex 17 h at 4 C, detected with OX6-PE
[5] = target: TCR of the rat Vβ8.2+ T cell hybridoma C14/BW12-12A1 (A1), specific for Gp-BP-72-89 (rat); assay: flow cytometry, directly labelled complex on A1 hybridomas, 3 h at 4 C

B1: β1α1/MBP-69-89 complex (rat RT1.B β1α1 construct loaded with MBP-69-89 peptide) (peptide-MHC)
chain: MGRDSPRDFVYQFKGLCYYTNGTQRIRDVIRYIYNQEEYLRYDSDVGEYRALTELGRPSAEYFNKQYLEQTRAELDTVCRHNYEGSEVRTSLRRLGGQDDIEADHVAAYGINMYQYYESRGQFTHEFDGDEEFYVDLDKKETIWRIPEFGQLTSFDPQGGLQNIAIIKHNLEILMKRSNSTQAVN
peptide: GSLPQKSQRSQDENPVVHF
B1 showed an inhibition of proliferation of the T cell line to MBP-69-89 + APC after pre-treatment with 10 nM complex [1] of over 90%, a fold increase in MFI over background [2] of 10 fold and a mean fluorescence intensity (MFI) [3] of 800 Units.

B2: β1α1/MBP-55-69 complex (rat RT1.B β1α1 with Gp-MBP-55-69 peptide) (peptide-MHC)
chain: B1 chain
peptide: SGKDSHHAARTTHYG
With B2 the inhibition of proliferation of the T cell line to MBP-69-89 + APC after pre-incubation with 20 µM complex [1] was 27%.

B3: β1α1/CM-2 complex (rat RT1.B β1α1 construct loaded with cardiac myosin peptide CM-2) (peptide-MHC)
chain: B1 chain
peptide: KLELQSALEEAEASLEH
B3 showed a mean fluorescence intensity (MFI) [4] of 1800 Units.

B4: A488-β1α1/MBP-69-89 (Alexa-488 conjugated rat β1α1 loaded with MBP-69-89) (peptide-MHC)
chain: B1 chain
peptide: GSLPQKSQRSQDENPVVHF
modifications: Alexa-488 dye conjugated, molar ratio dye/protein=1; site not stated
For B4, the MCI [5] was 300 Units.
